Experimental data as given in patent US20200016512A1, “AFFINITY […] FOR PURIFYING IMMUNOGLOBULIN” (KANEKA CORPORATION, priority 2017, published 2020).

Test system: Fab
Assay: Residual binding activity to Fab after alkali treatment (alkali resistance)
Format: physicochemical, human
Details: 0.2 mL peptide solution + 0.1 mL 45 mM sodium hydroxide, 25° C., 2 hours; compared with SpG mutant SEQ ID NO: 20
Experimental: Each peptide was subjected to dialysis using ultrapure water and the concentration thereof was adjusted to obtain 4 μM aqueous solution. To 0.2 mL of the aqueous solution, 0.1 mL corresponding to a half amount of the aqueous solution of 45 mM sodium hydroxide aqueous was added. The mixture was incubated at 25° C. for 2 hours and then neutralized by 0.1 mL of 50 mM acetic acid (pH 3.0). After it was confirmed that the mixture was neutralized by using a pH test paper, the mixture was diluted to 20 times by the standard buffer so that the concentration was adjusted to 100 nM.
The peptide solution prepared as the above was defined as a sample before alkali treatment at 0 hr, and 0.1 mL of the above sodium hydroxide aqueous solution and 0.1 mL of 50 mM acetic acid (pH 3.0) were preliminarily mixed and the mixture was added to the sample. The final concentration of the peptide in the solution was 100 nM.
A binding to an immunoglobulin by a similar method to Example 2(2) using Octet and the peptide solutions before and after the alkali treatment prepared in the above (1) was measured. An Fc was used instead of IgG in this experiment in order to simplify a binding pattern. […]
A residual binding activity to a Fab of the Fab-binding activity-enhanced peptides of SEQ ID NOs: 11 and 13 after the alkali resistance was also evaluated. […]

Substance | Alkali resistance: residual binding activity to a Fab after the alkali treatment (FIG. 3B)
SEQ ID NO: 11: Fab-binding activity-enhanced immunoglobulin-binding peptide, partly mutated sequence of SEQ ID NOs: 2 to 7 (TTYKLIVKGNTLTGYTTTIAVDAETAEKALKQFANENGVYGEWSYDDATKTFTVTE; novel peptide) | similarly improved
SEQ ID NO: 13: Fab-binding activity-enhanced immunoglobulin-binding peptide, partly mutated sequence of SEQ ID NOs: 2 to 7 (TTYRLVIKGVTLTGYTATIAVDAATAEQTLRQFANDNGITGEWAYDTATKTFTVTE; novel peptide) | similarly improved
